According to patent publication US20230212294A1 (MINGHUI PHARMACEUTICAL SHANGHAI, published 2023):

Columns and labels:
[1] = target: T1, B7-H3 endogenously expressed on human tumor cell lines (human, UniProt Q5ZPR3 29-534); test: cell-based or functional assay
T1 sequence (looked up): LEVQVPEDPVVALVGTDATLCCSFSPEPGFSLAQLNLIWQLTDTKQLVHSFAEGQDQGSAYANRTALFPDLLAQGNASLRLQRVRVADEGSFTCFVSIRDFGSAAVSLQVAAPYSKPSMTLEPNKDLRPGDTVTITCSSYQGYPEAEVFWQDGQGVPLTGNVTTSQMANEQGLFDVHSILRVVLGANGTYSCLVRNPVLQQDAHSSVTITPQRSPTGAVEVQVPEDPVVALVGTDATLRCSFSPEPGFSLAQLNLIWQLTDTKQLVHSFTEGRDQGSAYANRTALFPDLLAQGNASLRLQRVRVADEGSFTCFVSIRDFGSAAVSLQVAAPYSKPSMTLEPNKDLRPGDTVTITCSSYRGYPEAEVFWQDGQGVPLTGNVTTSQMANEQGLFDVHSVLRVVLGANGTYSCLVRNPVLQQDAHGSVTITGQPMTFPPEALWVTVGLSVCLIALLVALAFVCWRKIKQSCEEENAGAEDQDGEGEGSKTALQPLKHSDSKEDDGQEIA

[2] = target: T1, B7-H3 endogenously expressed on human …; test: cell-based or functional assay; remark: listed apart in the source
[3] = target: T1, B7-H3 endogenously expressed on human …; test: flow cytometry on NCI-H322 cells
Protocol: (§1) CHOK cells overexpressing B7-H3 or NCI-H322 cells endogenously expressing B7-H3 were added to a round-bottom 96-well plate at 100,000 cells per well, centrifuged to remove the supernatant, and then added with a gradient-diluted anti-B7-H3 antibody and incubated at 4 degrees for 1 h. After incubation, the cells were washed twice with FACS buffer (PBS containing 2% FBS), then added with fluorescent-labeled goat anti-human secondary antibody (Abcam, ab98596) and incubated for 0.5 h. After incubation, the cells were washed twice with FACS buffer, then resuspended with FACS buffer and detected with flow cytometry (Beckman, cytoFlex).

[4] = target: T2, B7-H3 on CHOK cells overexpressing B7-H3; test: flow cytometry on CHOK cells overexpressing B7-H3
T2 construct: whole, on cells; also called CHO cells that artificially express B7-H3; B7-H3-expressing CHO cells
T2 sequence (Q5ZPR3 whole entry, species assumed, looked up): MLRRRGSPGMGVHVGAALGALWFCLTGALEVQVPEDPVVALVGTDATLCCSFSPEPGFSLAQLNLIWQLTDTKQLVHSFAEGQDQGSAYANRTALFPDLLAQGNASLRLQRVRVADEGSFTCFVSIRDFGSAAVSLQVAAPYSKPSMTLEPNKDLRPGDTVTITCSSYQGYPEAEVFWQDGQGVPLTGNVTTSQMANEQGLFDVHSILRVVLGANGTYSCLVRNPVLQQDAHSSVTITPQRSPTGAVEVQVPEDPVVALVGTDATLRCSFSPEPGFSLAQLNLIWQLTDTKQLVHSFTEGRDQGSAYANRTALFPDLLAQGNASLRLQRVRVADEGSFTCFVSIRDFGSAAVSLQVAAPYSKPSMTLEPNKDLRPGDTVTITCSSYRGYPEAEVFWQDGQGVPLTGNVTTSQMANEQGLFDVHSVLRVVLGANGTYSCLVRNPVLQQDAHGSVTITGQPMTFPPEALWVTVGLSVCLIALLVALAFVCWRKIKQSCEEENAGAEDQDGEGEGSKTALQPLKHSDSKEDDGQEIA
Protocol: as §1

[5] = target: T2, B7-H3 on CHOK cells overexpressing B7-H3; test: cell-based or functional assay
[6] = target: T1, B7-H3 endogenously expressed on human …; test: cell-based or functional assay; remark: listed apart in the source
[7] = target: T3, mouse B7-H3-his (mouse, UniProt Q8VE98 29-244, limits assumed); test: ELISA, mouse B7-H3-his coated at 2 µg/mL
T3 construct: His-tagged recombinant protein coated on the ELISA plate; not shown: his tag
T3 sequence (looked up): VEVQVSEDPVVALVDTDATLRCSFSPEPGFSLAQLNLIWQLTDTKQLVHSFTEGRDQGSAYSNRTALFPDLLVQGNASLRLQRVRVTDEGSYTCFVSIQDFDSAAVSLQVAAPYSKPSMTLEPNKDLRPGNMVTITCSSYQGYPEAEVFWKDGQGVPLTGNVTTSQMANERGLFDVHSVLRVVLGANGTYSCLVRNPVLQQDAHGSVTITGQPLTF
Protocol: (§2) Human B7-H3-his, mouse B7-H3-his and monkey B7-H3-his were diluted to 2 μg/mL with PBS, and added to the ELISA plate at 30 μL per well. The ELISA plate was then incubated in a refrigerator at 4° C. for 16-20 hours. The next day, the ELISA plate was washed once with a lotion (PBS containing 0.05% Tween 20) and then blocked with 5% skim milk powder for 1 hour. After blocking, the ELISA plate was washed once, then added with gradient-diluted anti-B7-H3 antibodies, and incubated at room temperature for 1 h. After incubated, the ELISA plate was washed three times, then added with goat anti-human HRP-labeled secondary antibody, and incubated at room temperature for 1 h. After incubated, the ELISA plate was washed three times, then developed for 5-15 minutes by adding TMB, and finally terminated with 2M sulfuric acid. The data were recorded on the microplate reader.

[8] = target: T4, monkey B7-H3-his (monkey); test: ELISA, antigen coated at 2 µg/mL
T4 chain: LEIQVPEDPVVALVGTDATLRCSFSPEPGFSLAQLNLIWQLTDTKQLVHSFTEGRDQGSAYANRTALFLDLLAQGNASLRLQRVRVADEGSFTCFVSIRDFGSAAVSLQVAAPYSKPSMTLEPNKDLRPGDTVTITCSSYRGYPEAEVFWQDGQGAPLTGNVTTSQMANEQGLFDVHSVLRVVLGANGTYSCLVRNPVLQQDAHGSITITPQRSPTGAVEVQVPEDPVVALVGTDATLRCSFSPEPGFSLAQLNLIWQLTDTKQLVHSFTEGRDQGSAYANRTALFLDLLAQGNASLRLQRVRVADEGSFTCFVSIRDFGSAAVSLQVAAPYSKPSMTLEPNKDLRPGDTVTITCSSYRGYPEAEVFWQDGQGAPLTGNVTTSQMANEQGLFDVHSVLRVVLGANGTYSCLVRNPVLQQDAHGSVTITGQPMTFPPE
Protocol: as §2

[9] = target: T3, mouse B7-H3-his; test: ELISA, antigen coated at 2 µg/mL
Protocol: as §2

B1: IL-P7-C05-H4L3-MMAE (antibody, V domains shown)
VH: EVQLVESGGGLVQPGGSLRLSCAASGFTFSSYAMSWVRQAPGKGLELVAAINSNGGSTYYADSVKGRFTISRDNAKNTLYLQMSSLRAEDTAVYYCTRNEEFRRGLAYWGQGTLVTVSS
VL: DIQMTQSPSSLSASVGDRVTITCRASENIYSNLAWYQQKPGKAPKLLIYAASNLQSGVPSRFSGSGSGTDYTLTISSLQPEDFATYYCQHFWGTPPWTFGQGTKLEIK
modifications: MMAE (Monomethyl auristatin E) coupled to the antibody; linker, site and drug load not stated
Q: With B1 as the binder, how does the “Inhibitory IC50 against proliferation of BxPC-3 cells, 72 h, CellTiter-Glo” value [1] read?
A: 7.7 nM

Q: What about the “Inhibitory IC50 against proliferation of NCI-H1975 cells, 72 h, CellTiter-Glo” value [1] of the same binder?
A: 7.4 nM

Q: What about the “Inhibitory IC50 against proliferation of BxPC-3 cells, 5 days, CellTiter-Glo” value [2] of the same binder?
A: 5.5 nM

Q: What about the “Inhibitory IC50 against proliferation of Calu-6 cells, 5 days, CellTiter-Glo” value [2] of the same binder?
A: 0.3 nM

B2: IL-P7-C05-H4L3 (antibody, V domains shown)
VH: EVQLVESGGGLVQPGGSLRLSCAASGFTFSSYAMSWVRQAPGKGLELVAAINSNGGSTYYADSVKGRFTISRDNAKNTLYLQMSSLRAEDTAVYYCTRNEEFRRGLAYWGQGTLVTVSS
VL: DIQMTQSPSSLSASVGDRVTITCRASENIYSNLAWYQQKPGKAPKLLIYAASNLQSGVPSRFSGSGSGTDYTLTISSLQPEDFATYYCQHFWGTPPWTFGQGTKLEIK
notes: Humanized from IL-P7-C05; full-length antibody; also called ILP7C05huVH4 + ILP7C05huVL3
Q: B2 was tested. Which EC50 [3] did it give?
A: 0.0137 µg/mL

Q: And the EC50 [4]?
A: 0.48 µg/mL

Q: And the “IC50 of CHO endocytosis experiment (toxin-labeled secondary antibody, cell viability)” value (“IC50 of CHO endocytosis experiment” below) [5]?
A: 0.0199 µg/mL

Q: What about the “IC50 of NCI-H322 endocytosis experiment (toxin-labeled secondary antibody, cell viability)” value (“IC50 of NCI-H322 endocytosis experiment” below) [6] of the same binder?
A: 0.00253 µg/mL

B3: IL-P7-A06 (antibody, V domains shown)
VH: QVQLQQSGPEVVRPGVSVKISCKGSGYTFTDYAMHWVKQSHAKSLEWIGIINTYNGNTNYNQKFKGKATMTVDKSSSTAYMEFARLTSEDSAIYYCARSRGPWDRYFDVWGAGTTVTVSS
VL: DIVMTQSQKFMSTSVGDRVSVTCKASQNVGTAVAWYQQKPGQSPKLLIYSASNRYTGVPDRFTGSGSGTDFTLTISNMQSEDLADYFCQQYSSYPFTFGSGTKLEIK
notes: Unhumanized murine variable regions; full-length antibody
Q: For B3, which EC50 [3] is on record?
A: 0.072 µg/mL

Q: Does B3 bind [7]?
A: no binding

Q: And the EC50 [4]?
A: 0.278 µg/mL

Q: What about the “IC50 of CHO endocytosis experiment” value [5] of the same binder?
A: 0.0086 µg/mL

B4: IL-P5-B01 (antibody, V domains shown)
VH: EVQLQESGPSLVKPSQTLSLTCSVTGDSITSGSWNWIRKFPGNKLEYMGYISYSGSIYYNPSLKSRISITRDTSKNQYYLQLNSVTTEDTATYYCARGNPAWFAYWGQGTLVTVSA
VL: DIVMTQSQKFMSTSVGDRVSVTCKASQNVGTNVAWYQQKPGQSPKALIYSASYRYSGVPDRFTGSGSGTDFTLTISNVQSEDLAEYFCQQYNSYPYTFGGGTKLEIK
notes: as for B3
Q: B4 was tested. Which EC50 [3] did it give?
A: 0.131 µg/mL

Q: Does B4 bind [7]?
A: no binding

Q: And the EC50 [8]?
A: 0.115 µg/mL

Q: And the EC50 [4]?
A: 0.43 µg/mL

Q: And the “IC50 of CHO endocytosis experiment” value [5]?
A: 0.0028 µg/mL

B5: IL-P6-D06 (antibody, V domains shown)
VH: QVQLQQSGPELVRPGVSVKISCKGSGYTFTDYAIHWVKQSHAKSLEWIGVINTYSGNTNYNQKFKGRATMTVDKSSSTAYMELARLTSEDSAIYFCARGVTYGSGYPYWYFDVWGAGTTVTVSS
VL: DIVMTQSQKFMSTSVGDRVSVTCKASQNVGTNVAWYQQKPGQSPKALIYSASYRYSGVPDRFTGSGSGTDFTLTISNVQSEDLAEYFCQQYNSYPYTFGGGTKLEIK
notes: as for B3
Q: Which results are given for B5?
A: EC50 [3]: 0.103 µg/mL; EC50 [8]: 0.119 µg/mL; EC50 [9]: 1.13 µg/mL; EC50 [4]: 0.245 µg/mL; IC50 of NCI-H322 endocytosis experiment (toxin-labeled secondary antibody, cell viability) [6]: 0.00179 µg/mL

B6: IL-P6-C08 (antibody, V domains shown)
VH: EVKLVESGGDLVKPGGSLKLSCAASGFTFSSYGMSWVRQTSDKRLEWVATISGGGRYTYYPDSVKGRFTISRDSSKNTLYLQMSSLKSEDTAMYYCVRHYDGYLDYWGLGTTLTVSS
VL: DIQMIQSPASLSASVGETVTITCRASENIYSYLAWYQQKQGKSPQLLVYNAKTLAEGVPSRFSGSGSGTQFSLKINSLQPEDFGSYYCQHHYGTPPYTFGGGTKLEIK
notes: as for B3
Q: Which EC50 [3] does the source give for B6 here?
A: 0.158 µg/mL

Q: Does B6 bind [7]?
A: no binding

Q: And the EC50 [8]?
A: 0.0541 µg/mL

B7: IL-P5-C06 (antibody, V domains shown)
VH: QVQLQQSGPELVRPGVSVKISCKGSGYTFTDYAIHWAKQGHAKSLEWIGIINTYNGNSNYNQNFKGKATMTVDKSSSTAYMELTRLTSEDSAIYYCARNYGSSFNWYFDVWGQGTTLTVSS
VL: DIVLTQSPTTMAASPGEKITITCSASSSISSNYLHWYQQKPGFSPKLLIYSTSNLASGVPARFSGSGSGTSYSLTISSVEAEDAATYYCQQYSGYPLTFGAGTKLELK
notes: Unhumanized murine variable regions from the murine immune phage library; full-length antibody
Q: B7 was tested. Which EC50 [3] did it give?
A: 0.0795 µg/mL

Q: What about the EC50 [8] of the same binder?
A: 0.116 µg/mL

Q: And the EC50 [9]?
A: 0.134 µg/mL

Q: What about the EC50 [4] of the same binder?
A: 0.954 µg/mL

Q: And the “IC50 of CHO endocytosis experiment” value [5]?
A: 0.0209 µg/mL

Q: And the “IC50 of NCI-H322 endocytosis experiment” value [6]?
A: 0.0025 µg/mL

B8: IL-P7-C05 (antibody, V domains shown)
VH: EVQLVESGGDLVQPGGSLKLSCAASGFTFSSYGMSWVRQTPDKRLELVATINSNGGTTYYPDSVKGRFTISRDNAKHTLYLQMSSLKSEDTAMYYCTRNEEFRRGLAYWGQGTLVTVSA
VL: DIQMIQSPASLSVSVGETVTITCRASENIYSNLAWYQQKQGKSPQLLVYAATNLADGVPSRFSGSGSGTQYSLKINSLQSEDFGSYYCQHFWGTPPWTFGGGTKLEIK
notes: Unhumanized murine variable regions from the murine immune phage library; tested as full-length antibody expressed in ExpiCHO-S cells
Q: B8 was tested. Which EC50 [3] did it give?
A: 0.0126 µg/mL

Q: What about the EC50 [8] of the same binder?
A: 0.14 µg/mL

Q: What about the EC50 [9] of the same binder?
A: 1.21 µg/mL

Q: And the EC50 [4]?
A: 0.487 µg/mL

Q: What about the “IC50 of CHO endocytosis experiment” value [5] of the same binder?
A: 0.0144 µg/mL

Q: What about the “IC50 of NCI-H322 endocytosis experiment” value [6] of the same binder?
A: 0.00296 µg/mL
